Earlier results, collected in publication PMC2174977.

Molecular target: chemoreceptor (Tar) (Escherichia coli) (UniProt P07017)
Chain of UniProt P07017 (P07017 whole entry): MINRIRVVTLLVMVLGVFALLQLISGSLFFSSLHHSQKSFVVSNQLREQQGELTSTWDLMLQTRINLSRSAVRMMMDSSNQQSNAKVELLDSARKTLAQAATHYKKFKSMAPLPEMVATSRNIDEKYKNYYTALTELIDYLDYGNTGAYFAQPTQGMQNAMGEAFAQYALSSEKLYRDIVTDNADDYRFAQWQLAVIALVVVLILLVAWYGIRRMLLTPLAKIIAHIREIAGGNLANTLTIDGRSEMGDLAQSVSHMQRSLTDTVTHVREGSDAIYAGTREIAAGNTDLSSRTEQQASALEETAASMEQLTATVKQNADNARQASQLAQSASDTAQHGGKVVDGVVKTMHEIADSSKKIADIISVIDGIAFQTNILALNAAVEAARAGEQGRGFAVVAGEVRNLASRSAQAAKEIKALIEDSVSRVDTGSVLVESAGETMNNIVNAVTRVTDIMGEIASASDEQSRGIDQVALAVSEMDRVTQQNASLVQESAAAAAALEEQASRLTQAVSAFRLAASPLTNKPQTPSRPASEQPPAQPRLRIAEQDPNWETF

CheR (from UniProt P07364)
Kd: 11 µM
